In PMC6788056 one finds K0.5 data, which are given here for 2 proteins.

Substrate in the series: NC(=O)c1ccc[n+]([C@@H]2O[C@H](COP(=O)([O-])OP(=O)(O)OC[C@H]3O[C@@H](n4cnc5c(N)ncnc54)[C@H](O)[C@@H]3O)[C@@H](O)[C@H]2O)c1
Put plainly: purified protein. The following applies: NAD^+ binding (NB) domain; varied: cofactor.

B1: cUGDH (C. elegans UDP-glucose dehydrogenase) (Caenorhabditis elegans) (protein)
chain: MTDQVFGKVSKVVCVGAGYVGGPTCAMIAHKCPHITVTVVDMNTAKIAEWNSDKLPIYEPGLDEIVFAARGRNLFFSSDIPKAIAEADLIFISVNTPTKMYGRGKGMAPDLKYVESVSRTIAQYAGGPKIVVEKSTVPVKAAESIGCILREAQKNNENLKFQVLSNPEFLAEGTAMKDLANPDRVLIGGESSPEGLQAVAELVRIYENWVPRNRIITTNTWSSELSKLVANAFLAQRISSINSISAVCEATGAEISEVAHAVGYDTRIGSKFLQASVGFGGSCFQKDVLSLVYLCESLNLPQVADYWQGVININNWQRRRFADKIIAELFNTVTDKKIAIFGFAFKKNTGDTRESSAIHVIKHLMEEHAKLSVYDPKVQKSQMLNDLASVTSAQDVERLITVESDPYAAARGAHAIVVLTEWDEFVELNYSQIHNDMQHPAAIFDGRLILDQKALREIGFRTFAIGTSPDQAYNLFGTAGY
Regarding B1, the K0.5 was determined as 333 ± 18 µM.

B2: hUGDH (human UDP-glucose dehydrogenase) (Homo sapiens) (protein)
chain: MFEIKKICCIGAGYVGGPTCSVIAHMCPEIRVTVVDVNESRINAWNSPTLPIYEPGLKEVVESCRGKNLFFSTNIDDAIKEADLVFISVNTPTKTYGMGKGRAADLKYIEACARRIVQNSNGYKIVTEKSTVPVRAAESIRRIFDANTKPNLNLQVLSNPEFLAEGTAIKDLKNPDRVLIGGDETPEGQRAVQALCAVYEHWVPREKILTTNTWSSELSKLAANAFLAQRISSINSISALCEATGADVEEVATAIGMDQRIGNKFLKASVGFGGSCFQKDVLNLVYLCEALNLPEVARYWQQVIDMNDYQRRRFASRIIDSLFNTVTDKKIAILGFAFKKDTGDTRESSSIYISKYLMDEGAHLHIYDPKVPREQIVVDLSHPGVSEDDQVSRLVTISKDPYEACDGAHAVVICTEWDMFKELDYERIHKKMLKPAFIFDGRRVLDGLHNELQTIGFQIETIGKKVSSKRIPYAPSGEIPKFSLQDPPNKKPKV
Turning to B2, the K0.5 is 1094 ± 244 µM.
